Measured values as given in the supplement of paper PMC11246515.
± gives the standard deviation of the averaged measurements.

Test: total protein half-life in vivo (active degradation + dilution); higher = more stable protein
[1] = E. coli NCM3722 delta-clpP delta-lon delta-hslV, growth: N-lim chemostat, doubling time 6 h
[2] = E. coli NCM3722 delta-clpP, growth: N-lim chemostat, doubling time 6 h
[3] = E. coli NCM3722 delta-hslV, growth: N-lim chemostat, doubling time 6 h
[4] = E. coli NCM3722 delta-lon, growth: N-lim chemostat, doubling time 6 h
[5] = E. coli NCM3722 delta-smpB, growth: N-lim chemostat, doubling time 6 h
[6] = wild type E. coli NCM3722, growth: C-lim chemostat, doubling time 3 h
[7] = wild type E. coli NCM3722, growth: C-lim chemostat, doubling time 6 h
[8] = wild type E. coli NCM3722, growth: C-lim chemostat, doubling time 12 h
[9] = wild type E. coli NCM3722, growth: N-lim chemostat, doubling time 6 h
[10] = wild type E. coli NCM3722, growth: N-lim chemostat, doubling time 12 h
[11] = wild type E. coli NCM3722, growth: P-lim chemostat, doubling time 6 h
[12] = wild type E. coli NCM3722, growth: P-lim chemostat, doubling time 12 h

MLNRYPLWKYVMLIVVIVIGLLYALPNLFGEDPAVQITGARGVAASEQTLIQVQKTLQEEKITAKSVALEEGAILARFDSTDTQLRAREALMGVMGDKYVVALNLAPATPRWLAAIHAEPMKLGLDLRGGVHFLMEVDMDTALGKLQEQNIDSLRSDLREKGIPYTTVRKENNYGLSITFRDAKARDEAIAYLSKRHPDLVISSQGSNQLRAVMSDARLSEAREYAVQQNINILRNRVNQLGVAEPVVQRQGADRIVVELPGIQDTARAKEILGATATLEFRLVNTNVDQAAAASGRVPGDSEVKQTREGQPVVLYKRVILTGDHITDSTSSQDEYNQPQVNISLDSAGGNIMSNFTKDNIGKPMATLFVEYKDSGKKDANGRAVLVKQEEVINIANIQSRLGNSFRITGINNPNEARQLSLLLRAGALIAPIQIVEERTIGPTLGMQNIEQGLEACLAGLLVSILFMIIFYKKFGLIATSALIANLILIVGIMSLLPGATLSMPGIAGIVLTLAVAVDANVLINERIKEELSNGRTVQQAIDEGYRGAFSSIFDANITTLIKVIILYAVGTGAIKGFAITTGIGVATSMFTAIVGTRAIVNLLYGGKRVKKLSI [P0AG90]
total protein half-life in vivo [1]: 7.05 ± 0.45 h
total protein half-life in vivo [2]: 6.58 ± 0.21 h
total protein half-life in vivo [3]: 6.5 ± 0.39 h
total protein half-life in vivo [4]: 6.33 ± 0.36 h
total protein half-life in vivo [5]: 5.92 ± 0.46 h
total protein half-life in vivo [6]: 3.51 ± 0.36 h
total protein half-life in vivo [7]: 5.86 ± 0.32 h
total protein half-life in vivo [8]: 12.6 ± 2 h
total protein half-life in vivo [9]: 6.19 ± 0.036 h
total protein half-life in vivo [10]: 12.1 ± 0.19 h
total protein half-life in vivo [11]: 6.36 ± 0.41 h
total protein half-life in vivo [12]: 12.2 ± 0.8 h

MLNTLIVGASGYAGAELVTYVNRHPHMNITALTVSAQSNDAGKLISDLHPQLKGIVDLPLQPMSDISEFSPGVDVVFLATAHEVSHDLAPQFLEAGCVVFDLSGAFRVNDATFYEKYYGFTHQYPELLEQAAYGLAEWCGNKLKEANLIAVPGCYPTAAQLALKPLIDADLLDLNQWPVINATSGVSGAGRKAAISNSFCEVSLQPYGVFTHRHQPEIATHLGADVIFTPHLGNFPRGILETITCRLKSGVTQAQVAQVLQQAYAHKPLVRLYDKGVPALKNVVGLPFCDIGFAVQGEHLIIVATEDNLLKGAAAQAVQCANIRFGYAETQSLI
total protein half-life in vivo [1]: 3.94 ± 0.2 h
total protein half-life in vivo [2]: > 8 h
total protein half-life in vivo [3]: 3.34 ± 0.5 h
total protein half-life in vivo [4]: 4.24 ± 0.74 h
total protein half-life in vivo [5]: 3.24 ± 0.057 h
total protein half-life in vivo [6]: 2.67 ± 0.42 h
total protein half-life in vivo [7]: 5.7 ± 1.4 h
total protein half-life in vivo [8]: 9.58 ± 0.43 h
total protein half-life in vivo [9]: 3.24 h
total protein half-life in vivo [10]: 5.58 h
total protein half-life in vivo [11]: 5.06 ± 0.19 h
total protein half-life in vivo [12]: 9.57 ± 0.58 h

MLPDSSVRLNKYISESGICSRREADRYIEQGNVFLNGKRATIGDQVKPGDVVKVNGQLIEPREAEDLVLIALNKPVGIVSTTEDGERDNIVDFVNHSKRVFPIGRLDKDSQGLIFLTNHGDLVNKILRAGNDHEKEYLVTVDKPITEEFIRGMSAGVPILGTVTKKCKVKKEAPFVFRITLVQGLNRQIRRMCEHFGYEVKKLERTRIMNVSLSGIPLGEWRDLTDDELIDLFKLIENSSSEVKPKAKAKPKTAGIKRPVVKMEKTAEKGGRPASNGKRFTSPGRKKKGR
total protein half-life in vivo [1]: 6.01 ± 1.2 h
total protein half-life in vivo [2]: 3.751 ± 0.021 h
total protein half-life in vivo [3]: 3.44 ± 0.14 h
total protein half-life in vivo [4]: 5.61 ± 0.41 h
total protein half-life in vivo [5]: 3.43 ± 0.087 h
total protein half-life in vivo [6]: 2.2 ± 0.11 h
total protein half-life in vivo [7]: 4.11 ± 0.4 h
total protein half-life in vivo [8]: 5.93 ± 0.93 h
total protein half-life in vivo [9]: 3.29 ± 0.094 h
total protein half-life in vivo [10]: 5.37 ± 0.073 h
total protein half-life in vivo [11]: 2.59 ± 0.18 h
total protein half-life in vivo [12]: 5.07 ± 0.21 h

MLPFLKAPADAPLMTDKYEIDARYRYWRRHILLTIWLGYALFYFTRKSFNAAVPEILANGVLSRSDIGLLATLFYITYGVSKFVSGIVSDRSNARYFMGIGLIATGIINILFGFSTSLWAFAVLWVLNAFFQGWGSPVCARLLTAWYSRTERGGWWALWNTAHNVGGALIPIVMAAAALHYGWRAGMMIAGCMAIVVGIFLCWRLRDRPQALGLPAVGEWRHDALEIAQQQEGAGLTRKEILTKYVLLNPYIWLLSFCYVLVYVVRAAINDWGNLYMSETLGVDLVTANTAVTMFELGGFIGALVAGWGSDKLFNGNRGPMNLIFAAGILLSVGSLWLMPFASYVMQATCFFTIGFFVFGPQMLIGMAAAECSHKEAAGAATGFVGLFAYLGASLAGWPLAKVLDTWHWSGFFVVISIAAGISALLLLPFLNAQTPREA
total protein half-life in vivo [1]: 7.27 h
total protein half-life in vivo [2]: 6.56 ± 0.2 h
total protein half-life in vivo [3]: 5.26 h
total protein half-life in vivo [4]: 5.43 ± 0.18 h
total protein half-life in vivo [5]: 6.52 ± 0.92 h
total protein half-life in vivo [6]: 2.81 h
total protein half-life in vivo [7]: 6.04 h
total protein half-life in vivo [8]: 10.4 h
total protein half-life in vivo [9]: 5.01 ± 2.2 h
total protein half-life in vivo [10]: > 16 h
total protein half-life in vivo [12]: 10.6 ± 1.1 h

MLQFILRRLGLVIPTFIGITLLTFAFVHMIPGDPVMIMAGERGISPERHAQLLAELGLDKPMWQQYLHYIWGVMHGDLGISMKSRIPVWEEFVPRFQATLELGVCAMIFATAVGIPVGVLAAVKRGSIFDHTAVGLALTGYSMPIFWWGMMLIMLVSVHWNLTPVSGRVSDMVFLDDSNPLTGFMLIDTAIWGEDGNFIDAVAHMILPAIVLGTIPLAVIVRMTRSSMLEVLGEDYIRTARAKGLTRMRVIIVHALRNAMLPVVTVIGLQVGTLLAGAILTETIFSWPGLGRWLIDALQRRDYPVVQGGVLLVATMIILVNLLVDLLYGVVNPRIRHKK [P0AEF8]
total protein half-life in vivo [1]: 6.91 ± 0.36 h
total protein half-life in vivo [2]: 6.54 ± 1.1 h
total protein half-life in vivo [3]: 5.46 ± 0.53 h
total protein half-life in vivo [4]: 5.39 ± 0.46 h
total protein half-life in vivo [5]: 5.95 ± 0.45 h
total protein half-life in vivo [6]: 3.53 ± 0.4 h
total protein half-life in vivo [7]: 6.656 ± 0.039 h
total protein half-life in vivo [8]: 13.1 ± 1.5 h
total protein half-life in vivo [9]: 6.42 ± 0.19 h
total protein half-life in vivo [10]: 13 ± 3.1 h
total protein half-life in vivo [11]: 5.96 ± 0.41 h
total protein half-life in vivo [12]: 11.5 ± 1 h

MLQISHLYADYGGKPALEDINLTLESGELLVVLGPSGCGKTTLLNLIAGFVPYQHGSIQLAGKRIEGPGAERGVVFQNEGLLPWRNVQDNVAFGLQLAGIEKMQRLEIAHQMLKKVGLEGAEKRYIWQLSGGQRQRVGIARALAANPQLLLLDEPFGALDAFTRDQMQTLLLKLWQETGKQVLLITHDIEEAVFMATELVLLSSGPGRVLERLPLNFARRFVAGESSRSIKSDPQFIAMREYVLSRVFEQREAFS
total protein half-life in vivo [1]: 4.76 h
